According to article PMC8692609, “Native mass spectrometry identifies the HybG chaperone as carrier of the Fe(CN)2CO group during maturation of E. coli [NiFe]-hydrogenase 2” (Scientific Reports, 2021):

B1: StrepII-tagged HybG (natural protein, E. coli, UniProt P0AAM7 1-82, looked up)
chain: MCIGVPGQVLAVGEDIHQLAQVEVCGIKRDVNIALICEGNPADLLGQWVLVHVGFAMSIIDEDEAKATLDALRQMDYDITSA
modifications: populations with a +26 Da modification on the N-terminal cysteinyl residue, a further +44 Da (CO2) modification, or the Fe(CN)2CO group (+136 Da; only on HybG dissociated from the native HybG-HypD complex)
notes: HybG, HypC-family hydrogenase maturation chaperone of Escherichia coli; the N-terminal residue of the protein is the cysteine that is formally amino acid position 2; Deconvoluted mass of the unmodified tagged protein is printed as 9615 Da; also called StrepII-HybG; native HybG; not shown: StrepII, C-terminal, kept

How the values were obtained:
StrepII-tagged HybG [1] = target: B1; test: native MS; isolated StrepII-HybG–HypD complex; 500 mM ammonium acetate pH 6.8, about 10 uM protein, nano-ESI Q-TOF, collision energy 40 V; CID-MS/MS of the 13+ ion at 80 V; settings: both partners purified
StrepII-tagged HybG [2] = target: B1; test: native MS; purified N-terminally His-tagged pre-HybC supplemented with equimolar amounts of StrepII-HybG; 500 mM ammonium acetate pH 6.8; CID-MS/MS of the 16+ complex ion; settings: both partners purified
[3] = target: the molecule itself; test: as above

stoichiometry N (StrepII-tagged HybG [1]) | stoichiometry N (StrepII-tagged HybG [2]) | Binder | stoichiometry N [3]
1 HybG:HypD | – | HypD (natural protein, E. coli, UniProt P24192 1-373, looked up, HypD, iron-sulfur cluster-containing hydrogenase maturation protein of Escherichia coli; untagged; Carries a 4Fe-4S cluster; Untagged unless stated otherwise; also called HypD scaffold protein) MRFVDEYRAPEQVMQLIEHLRERASHLSYTAERPLRIMEVCGGHTHAIFKFGLDQLLPENVEFIHGPGCPVCVLPMGRIDTCVEIASHPEVIFCTFGDAMRVPGKQGSLLQAKARGADVRIVYSPMDALKLAQENPTRKVVFFGLGFETTMPTTAITLQQAKARDVQNFYFFCQHITLIPTLRSLLEQPDNGIDAFLAPGHVSMVIGTDAYNFIASDFHRPLVVAGFEPLDLLQGVVMLVQQKIAAHSKVENQYRRVVPDAGNLLAQQAIADVFCVNGDSEWRGLGVIESSGVHLTPDYQRFDAEAHFRPAPQQVCDDPRARCGEVLTGKCKPHQCPLFGNTCNPQTAFGALMVSSEGACAAWYQYRQQESEA | –
– | 1 HybG:pre-HybC | N-terminally His-tagged pre-HybC (natural protein, E. coli, UniProt P0ACE0 1-567, looked up, HybC, large (catalytic) subunit of hydrogenase 2 of Escherichia coli, as the immature precursor that still has the C-terminal peptide removed on maturation; also called apo-form of the hydrogenase 2 catalytic subunit; hydrogenase 2 large-subunit precursor; source: E. coli (plasmid pCAN-hybC_(stop)), purified on cobalt-charged TALON Superflow agarose; not shown: His tag, N-terminal, kept) MSQRITIDPVTRIEGHLRIDCEIENGVVSKAWASGTMWRGMEEIVKNRDPRDAWMIVQRICGVCTTTHALSSVRAAESALNIDVPVNAQYIRNIILAAHTTHDHIVHFYQLSALDWVDITSALQADPTKASEMLKGVSTWHLNSPEEFTKVQNKIKDLVASGQLGIFANGYWGHPAMKLPPEVNLIAVAHYLQALECQRDANRVVALLGGKTPHIQNLAVGGVANPINLDGLGVLNLERLMYIKSFIDKLSDFVEQVYKVDTAVIAAFYPEWLTRGKGAVNYLSVPEFPTDSKNGSFLFPGGYIENADLSSYRPITSHSDEYLIKGIQESAKHSWYKDEAPQAPWEGTTIPAYDGWSDDGKYSWVKSPTFYGKTVEVGPLANMLVKLAAGRESTQNKLNEIVAIYQKLTGNTLEVAQLHSTLGRIIGRTVHCCELQDILQNQYSALITNIGKGDHTTFVKPNIPATGEFKGVGFLEAPRGMLSHWMVIKDGIISNYQAVVPSTWNSGPRNFNDDVGPYEQSLVGTPVADPNKPLEVVRTIHSFDPCMACAVHVVDADGNEVVSVKVL | 2
– | – | B1 | 2
